Target: T1, N-terminally tagged GFP cldn2 with the Linker domain between GFP and cldn2 (mouse, UniProt O88552 1-230)
T1 sequence: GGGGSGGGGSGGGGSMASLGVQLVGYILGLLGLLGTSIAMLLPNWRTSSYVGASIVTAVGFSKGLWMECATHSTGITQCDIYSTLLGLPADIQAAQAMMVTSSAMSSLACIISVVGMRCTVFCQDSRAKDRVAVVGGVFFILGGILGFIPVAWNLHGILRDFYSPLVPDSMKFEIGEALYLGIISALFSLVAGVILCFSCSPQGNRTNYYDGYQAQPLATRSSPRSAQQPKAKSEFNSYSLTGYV
Assay: pull-down

- fold binding against GFP cldn2 without the linker: ~3 fold
B1: myc-tagged N-terminal half of ZO-1 containing the PDZ domains (ZNA; amino acids 1-887) (domain or fragment, UniProt Q07157 1-887, looked up)
chain: MSARAAAAKSTAMEETAIWEQHTVTLHRAPGFGFGIAISGGRDNPHFQSGETSIVISDVLKGGPAEGQLQENDRVAMVNGVSMDNVEHAFAVQQLRKSGKNAKITIRRKKKVQIPVSRPDPEPVSDNEEDSYDEEIHDPRSGRSGVVNRRSEKIWPRDRSASRERSLSPRSDRRSVASSQPAKPTKVTLVKSRKNEEYGLRLASHIFVKEISQDSLAARDGNIQEGDVVLKINGTVTENMSLTDAKTLIERSKGKLKMVVQRDERATLLNVPDLSDSIHSANASERDDISEIQSLASDHSGRSHDRPPRRSRSRSPDQRSEPSDHSRHSPQQPSNGSLRSRDEERISKPGAVSTPVKHADDHTPKTVEEVTVERNEKQTPSLPEPKPVYAQVGQPDVDLPVSPSDGVLPNSTHEDGILRPSMKLVKFRKGDSVGLRLAGGNDVGIFVAGVLEDSPAAKEGLEEGDQILRVNNVDFTNIIREEAVLFLLDLPKGEEVTILAQKKKDVYRRIVESDVGDSFYIRTHFEYEKESPYGLSFNKGEVFRVVDTLYNGKLGSWLAIRIGKNHKEVERGIIPNKNRAEQLASVQYTLPKTAGGDRADFWRFRGLRSSKRNLRKSREDLSAQPVQTKFPAYERVVLREAGFLRPVTIFGPIADVAREKLAREEPDIYQIAKSEPRDAGTDQRSSGIIRLHTIKQIIDQDKHALLDVTPNAVDRLNYAQWYPIVVFLNPDSKQGVKTMRMRLCPESRKSARKLYERSHKLRKNNHHLFTTTINLNSMNDGWYGALKEAIQQQQNQLVWVSEGKADGATSDDLDLHDDRLSYLSAPGSEYSMYSTDSRHTSDYEDTDTEGGAYTDQELDETLNDEVGTPPESAITRSSEPVREDSSG
